Test results taken from the supplement of paper PMC9170038.

Test system: MS2 coat protein
Assay: apparent KD of MS2 coat protein; designed switch direction (-1 OFF switch, 1 ON switch): -1; higher = weaker reporter binding
Summary of the method: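 Stalled E. coli RNA polymerase transcribed designed RNA switches on Illumina chips, which were then titrated with SNAP-549-labelled MS2 coat protein, doubling from 0.7 or 1.5 nM to 3 µM. Steps lasted from 0.8–1.5 h at the lowest concentration to 10–20 min at the highest. The apparent KD is each design's median over clusters of curve-fitted normalised fluorescence.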

[1] = Eterna round: R95, input ligand: microRNA oligo, concentration not stated
[2] = input ligand: microRNA oligo, concentration not stated
[3] = Eterna round: R95, input ligand: FMN 200 uM
[4] = Eterna round: R95, input ligand: none

Sequence: UAGGAGUCAGGAUAUGCGAGAGAUGGAAGUAAGGGAUGAGAGCAGAAGGGACAUGAGGAUCACCCAUGUAAGGA [JR_Exclu4_Sub091] (puzzle: Exclusion 4)
- apparent KD of MS2 coat protein [1]: 37.2 nM

Sequence: UAGGUGUAGUUAGGAUAUCGUUGCGAUUAGCUACGAGAAGGAACACAUGAGGAUCACCCAUGUCUACUCAAGAAACGAAAGGAA [6th something] (Eterna round: R96, puzzle: Exclusion NG 1)
- apparent KD of MS2 coat protein (input ligand: FMN 200 uM): 29 nM
- apparent KD of MS2 coat protein [2]: 22.1 nM
- apparent KD of MS2 coat protein (input ligand: none): 24.9 nM

Sequence: UAGUUAAUCACAGGAUAUCGCCUCUUAUUACAUGAGGAUCACCCAUGUUUAGUUAGUUACAUGUUCGAGAAGGGUGUUGUAGUU [JR_ExcNG2_Sub042] (Eterna round: R96, puzzle: Exclusion NG 2)
- apparent KD of MS2 coat protein (input ligand: FMN 200 uM): 714 nM
- apparent KD of MS2 coat protein [2]: 408 nM
- apparent KD of MS2 coat protein (input ligand: none): 579 nM

Sequence: UAGUUAUUCACAGGAUAUCGCCUCUUAUUACAUGAGGAUCACCCAUGUUUAGUUAGUUACAUGUUCGAGAAGGGUGUAGUUGUU [JR_ExcNG2_Sub043] (Eterna round: R96, puzzle: Exclusion NG 2)
- apparent KD of MS2 coat protein [2]: 290 nM

Sequence: UAUACACAUGAGGAUCACCCAUGUGAGGAUAUGUACAACAACAAGACGGAAAAAAAAUACAGAAGGCACAAAUA [JR_Exclusion1_Sub028] (puzzle: Exclusion 1)
- apparent KD of MS2 coat protein [3]: 22.7 nM
- apparent KD of MS2 coat protein [1]: 25.7 nM
- apparent KD of MS2 coat protein [4]: 32.4 nM

Sequence: UAUACUAGAUAGGAUAUACUAUAUAUAUUAUUCGUAGAAGGAUCUACAUGAGGAUCACCCAUGUUAACAGCAGU [JR_E6_Sub006] (puzzle: Exclusion 6)
- apparent KD of MS2 coat protein [1]: 37.2 nM

Sequence: UAUAUAUAGUAAGGAUAUGUAAUAAUUUUAUAAACAGAAGGUACUGACAUGAGGAUCACCCAUGUUUUAGUGUGGGCAUGUAGA [JMF's solution 30] (Eterna round: R96, puzzle: Exclusion NG 1)
- apparent KD of MS2 coat protein [2]: 73.2 nM

Sequence: UAUAUAUAGUAAGGAUAUGUAAUUCUUUUAUAAACAGAAGGUACUGACAUGAGGAUCACCCAUGUUUUAGUGUGGGCAUGUAGA [JMF's solution 34] (Eterna round: R96, puzzle: Exclusion NG 1)
- apparent KD of MS2 coat protein [2]: 53.1 nM

Sequence: UAUAUAUAGUAAGGAUAUGUAUAUAAUUUAUAAACAGAAGGUACUGACAUGAGGAUCACCCAUGUUUUAGUGUGGGCAUGUAGA [JMF's solution 55] (Eterna round: R96, puzzle: Exclusion NG 1)
- apparent KD of MS2 coat protein [2]: 64.4 nM

Sequence: UAUAUAUAGUAAGGAUAUGUAUUAAUUUAAUAAACAGAAGGUACUGACAUGAGGAUCACCCAUGUUUUAGUGUGGGCAUGUAGA [JMF's solution 83] (Eterna round: R96, puzzle: Exclusion NG 1)
- apparent KD of MS2 coat protein [2]: 64.3 nM

Sequence: UAUAUAUAGUAAGGAUAUGUAUUAAUUUGAUAAACAGAAGGUACUGACAUGAGGAUCACCCAUGUUUUAGUGUGGGCAUGUAGA [JMF's solution 84] (Eterna round: R96, puzzle: Exclusion NG 1)
- apparent KD of MS2 coat protein [2]: 75.6 nM

Sequence: UAUAUGUGAGGAUAUCCUUUAUUAAUUAUUAUAUUAUAUAUGGAGAAGGCACAUGAGGAUCACCCAUGUUAUAU [lam1] (Eterna round: R97, puzzle: Exclusion 4)
- apparent KD of MS2 coat protein (input ligand: FMN 200 uM): 72.8 nM
- apparent KD of MS2 coat protein (input ligand: none): 42.1 nM

Sequence: UAUUAAACAAGCAGAUCCCACAUGAGGAUCACCCAUGUGCUCGUCUUAUAAGGUACUGUGACGAUAGUCACGGUACC [Mat - Sensor, turn-off var - Eli Mod - D62] (Eterna round: R97, puzzle: Sensor, turn-off variant 1)
- apparent KD of MS2 coat protein (input ligand: FMN 200 uM): 49 nM
- apparent KD of MS2 coat protein (input ligand: none): 54.5 nM

Sequence: UAUUAAACAAGCGGAUCCCACAUGAGGAUCACCCAUGUGCUCGUCUUAUAAGGUACUGUGACGAAAGUCACGGUACC [Sensor 3, v1 - 91 v13] (Eterna round: R97, puzzle: Sensor, turn-off variant 1)
- apparent KD of MS2 coat protein (input ligand: FMN 200 uM): 25 nM
- apparent KD of MS2 coat protein (input ligand: none): 28.9 nM

Sequence: UAUUAACAAGCUAGAUCCCACAUGAGGAUCACCCAUGUGCUCGUCUUAUAAGGUACUGUGACGAAAGUCACGGUACC [Sensor 3, v1 - 78] (puzzle: Sensor v3, turn-off variant 1)
- apparent KD of MS2 coat protein [3]: 37.8 nM
- apparent KD of MS2 coat protein [1]: 188 nM
- apparent KD of MS2 coat protein [4]: 32.3 nM

Sequence: UAUUAACAAGCUAGAUCCUACAUGAGGAUCACCCAUGUGCUCGUCUUAUAAGGUACUGUGACGAAAGUCACGGUACC [Sensor 3, v1 - 76] (puzzle: Sensor v3, turn-off variant 1)
- apparent KD of MS2 coat protein [3]: 265 nM
- apparent KD of MS2 coat protein [1]: 42.4 nM
- apparent KD of MS2 coat protein [4]: 243 nM

Sequence: UAUUAAGCAAGCAGAUCCCACAUGAGGAUCACCCAUGUGCUCGUCUUAUAAGGUACUGUGACAAAAGUCACGGUACC [Mat - Sensor, turn-off var - Eli Mod - D74] (Eterna round: R97, puzzle: Sensor, turn-off variant 1)
- apparent KD of MS2 coat protein (input ligand: FMN 200 uM): 121 nM
- apparent KD of MS2 coat protein (input ligand: none): 135 nM

Sequence: UAUUAAUGCAAGGAUAUGCUUUUAAUUUUUUUUGCAGAAGGUGCAACAUGAGGAUCACCCAUGUUUGAGGGUAU [JR_E6_Sub030] (puzzle: Exclusion 6)
- apparent KD of MS2 coat protein [3]: 68.4 nM
- apparent KD of MS2 coat protein [1]: 59 nM
- apparent KD of MS2 coat protein [4]: 53.8 nM

Sequence: UAUUAGCAAGCAAGAUCCCACAUGAGGAUCACCCAUGUGCUCGUCGCAUCCAGAAUUACUGGGUGCGCUCGUCUUAU [Winner reversed engineered 16] (Eterna round: R97, puzzle: Sensor, turn-off variant 1)
- apparent KD of MS2 coat protein (input ligand: FMN 200 uM): 168 nM
- apparent KD of MS2 coat protein (input ligand: none): 169 nM

Sequence: UAUUAGCAAGCGAGAUCCCACAUGAGGAUCACCCAUGUAAAGCAUCCAGAAUUACUGGGUGCAAAAGCUCGUCUUAU [Winner reversed engineered 6] (Eterna round: R97, puzzle: Sensor, turn-off variant 1)
- apparent KD of MS2 coat protein (input ligand: FMN 200 uM): 29.4 nM
- apparent KD of MS2 coat protein (input ligand: none): 31.7 nM

Sequence: UAUUAGCAAGCGAGAUCUCACAUGAGGAUCACCCAUGUGCUCGUCUUAUAAGGUACUGUGACGAUAGUCACGGUACC [Mat - Sensor, turn-off var - Eli Mod - D38] (Eterna round: R97, puzzle: Sensor, turn-off variant 1)
- apparent KD of MS2 coat protein (input ligand: FMN 200 uM): 15.3 nM
- apparent KD of MS2 coat protein (input ligand: none): 14.6 nM

Sequence: UAUUAGCAAGUAAGAUCCCACAUGAGGAUCACCCAUGUGCUCGUCUUAUAAGGUACUGUGACGAUAGUCACGGUACC [Mat - Sensor, turn-off var - Eli Mod - D44] (Eterna round: R97, puzzle: Sensor, turn-off variant 1)
- apparent KD of MS2 coat protein (input ligand: FMN 200 uM): 18.3 nM
- apparent KD of MS2 coat protein (input ligand: none): 17.8 nM

Sequence: UAUUAGCAAGUAAGGUCCCACAUGAGGAUCACCCAUGUGCUCGUCACCUCAGGUACGGAGCGGAAACUCCCGAUAUG [Sensor-V1 #91] (Eterna round: R97, puzzle: Sensor, turn-off variant 1)
- apparent KD of MS2 coat protein (input ligand: FMN 200 uM): 81.4 nM
- apparent KD of MS2 coat protein (input ligand: none): 83.1 nM

Sequence: UAUUAGUAAGGAUAUGAGACGUAGGACGCAAGUCCUACGUCUCAGAAGGUACAUGAGGAUCACCCAUGUCUAUU [Mod of Fisker 10 - Jieux - Exclusion 4] (Eterna round: R97, puzzle: Exclusion 4)
- apparent KD of MS2 coat protein (input ligand: FMN 200 uM): 21.2 nM
- apparent KD of MS2 coat protein (input ligand: none): 22.2 nM

Sequence: UAUUAUCAAGCAAGAUCCCACAUGAGGAUCACCCAUGUGCUCGUCUUAUUUCUGGCCUUAUUGGUCUCUCGUCUAAU [JR_STOV1_v2_Sub095] (Eterna round: R97, puzzle: Sensor, turn-off variant 1)
- apparent KD of MS2 coat protein (input ligand: FMN 200 uM): 25.8 nM
- apparent KD of MS2 coat protein (input ligand: none): 26.7 nM

Sequence: UAUUCACAAGCGAGAUCCCACAUGAGGAUCACCCAUGUGCUCGUCUUAUAAGGUACUGUGACGAUAGUCACGGUACC [Mat - Sensor, turn-off var - Eli Mod - D86] (Eterna round: R97, puzzle: Sensor, turn-off variant 1)
- apparent KD of MS2 coat protein (input ligand: FMN 200 uM): 17.4 nM
- apparent KD of MS2 coat protein (input ligand: none): 15 nM

Sequence: UAUUCGCAAGUGAGAUCCCACAUGAGGAUCACCCAUGUGCUCGUCUUAUAAGGUACUGUGACGAAAGUCACGGUACC [Sensor 3, v1 - 91 v23] (Eterna round: R97, puzzle: Sensor, turn-off variant 1)
- apparent KD of MS2 coat protein (input ligand: FMN 200 uM): 32.4 nM
- apparent KD of MS2 coat protein (input ligand: none): 36.1 nM

Sequence: UAUUUAAGAGGAUAUACAUGAGGAUCACCCAUGUAUAAUAAAAUACAUGAUUUUUUAUGUAGAAGGCUUGGGUA [-19.1, -18.3 kcal, 36% A] (Eterna round: R97, puzzle: Exclusion 3)
- apparent KD of MS2 coat protein (input ligand: FMN 200 uM): 72 nM
- apparent KD of MS2 coat protein (input ligand: none): 21.1 nM

Sequence: UAUUUGCAAGCGAGAUCCCACAUGAGGAUCACCCAUGUUCUUGGAAAGUACAGAAUUACUGUACAAGCUCGUCUUCU [mod-Eli/newD-last] (Eterna round: R97, puzzle: Sensor, turn-off variant 1)
- apparent KD of MS2 coat protein (input ligand: FMN 200 uM): 18.9 nM
- apparent KD of MS2 coat protein (input ligand: none): 20.4 nM

Sequence: UCAAGUAUGUAGGAUAUCGAUGUCCUUGGACAUCGAGAAGGACGUACAUGAGGAUCACCCAUGUAACUUGCAUG [Exclusion 6 - B - 10:e] (Eterna round: R96, puzzle: Exclusion 6)
- apparent KD of MS2 coat protein [2]: 131 nM

Sequence: UCAAGUAUGUAGGAUAUCGAUGUCCUUGGACAUCGAGAAGGACGUACAUGAGGAUCACCCAUGUAACUUGCAUG [Exclusion 6 - B - 10:e] (puzzle: Exclusion 6)
- apparent KD of MS2 coat protein [3]: 103 nM
- apparent KD of MS2 coat protein [1]: 138 nM
- apparent KD of MS2 coat protein [4]: 94.5 nM
